B1: C953 (antibody, V domains shown)
VH: QVQLVQSGAEVKKPGSSVKVSCKASGGTFSSYAISWVRQAPGQGLEWMGRIIPILGIANYAQKFQGRVTITADKSTSTAYMELSSLRSEDTAVYYCARDSEYSSSWYSRGYYGMDVWGQGTTVTVSS
VL: not shown
B2: C908 (antibody, V domains shown)
VH: EVQLVQSGAEVKKPGESLKISCKASGYSFTIYWIGWVRQMPGKGLEWMGIIYPGESETRYSPSFQGQVTISADKSISTAYLQWRSLKASDTAMYYCARGGPPGGVKLELTDYWGQGTLVTVSS
VL: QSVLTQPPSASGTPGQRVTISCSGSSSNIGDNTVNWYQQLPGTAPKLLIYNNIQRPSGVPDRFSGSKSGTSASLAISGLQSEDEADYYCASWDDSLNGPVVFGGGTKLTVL
B3: C954 (antibody, V domains shown)
VH: QVQLVQSGAEVKKPGSSVKVSCKASGDTFTNYAFSWMRQAPGQGLEWMGRIIPILGIVKYSQKFQDRVRISADKSTSTAYMDLSSLRSEDTAMYYCARDSEFSTSWFSRGYHGMDVWGQGTTVTVSS
VL: DIVMTQSPLSLPVTPGEPASISCRSSQSLLHGDGYNYLDWYLQKPGQSPHLLIYLGSNRTSGVSDRFSGSGSGTDFTLKISRVEAEDVGVYYCMQALQTPPTFGGGTKVEIK
B4: C843 (antibody, V domains shown)
VH: QVQLVESGGGVVQPGRSLRLSCAASGFTFSRYAMHWVRQAPGKGLEWVAVISYDGSNKYYATSLKGRCTISRDNSKNTLYLQMNSLRAEDTAVYFCAKQIGEYCSGGNCYQGSLDYWGQGTLVTVSS
VL: DIQMTQSPSSLSASVGDRVTITCQASQDISNYLNWYQQKPGKAPKLLIYDASDLETGVPSTFSGSGSGTDFTLTISSLQPEDFATYYCQQYDIVPFTFGPGTKVDIK
B5: C1009 (antibody, V domains shown)
VH: EVQLVESGGGLLQPGGSLRLSCAASGFSVSSNYMTWVRQAPGKGLEWVAAIYSGDSTYYVDSVKGRFIISRDNSKNTVYLHLSSLRAEDTAVYYCARLVGYDFRSGSDGGYFDYWGHGTLVTVSS
VL: QSALTQPASVSGSPGQSITISCTGTSSDIGNYNLVSWYQQHPGKAPKLMIYDVSKRPSGVSNRFSGSKSGNTASLTISGLQAEDETDYYCCSYAGSSTWVFGGGTKLTVL
B6: C845 (antibody, V domains shown)
VH: QVQLQESGPGLVKPSQTLSLTCTVSGASISSGEYYWSWVRQPPGKGLEWVGYIYYSGSTYYNPSLKSRVTISVDTSKNHFSLKLKSLTAADTAVYFCATGGLSAFGELFPHDKWGQGTLVTVSS
VL: EIVLTQSPATLSLSPGERATLSCRASQSVGSDLAWYQQKPGQAPRLLIYDTSNRATGIPARFSGSGSGTDFTLTISSLDPADFAVYYCQQRTNWLFSFGPGTKVDIK
B7: C960 (antibody, V domains shown)
VH: QVQLVESGGGVVQPGRSLTLSCTASGFTFNRFAMFWVRQAPGKGLEWVAVISFDGSYEHYAESVKGRFAIFRDNPKNTLYLQMNSLRAEDTAVYYCAKSPINYCANGVCYPDSWGQGTLVTVSS
VL: NFMLTQPHSVSESPGKTVTISCTGSSGSIANNYVQWYQQRPGSAPTTVIFEDTQRPSGVPDRFSGSIDSSSNSASLNISGLKPEDEADYYCQSFDVNSRWVFGGGTKLTVL
B8: C844 (antibody, V domains shown)
VH: EVQLVESGGGLVKPGGSLRLSCVATGFSFSDAWMNWVRQAPGKGLEWVGRIRSEIADGTTDYAAPVKGRFTISRDDARNTLYLQMNSLEIEDTAVYYCTTGVVVVVSSSPDDAFDVWGQGTMVTVSS
VL: DIQMTQSPSSLSASVGDRVTITCRASQSIGHYLNWYQQKPGKAPKLLIYAASSLQSGVPSRFSGSGSGAGFTLTVNGLQPEDLATYYCQQYYTTPPTFGQGTKVEIK
B9: C951 (antibody, V domains shown)
VH: QVQLQESGPRLVKPSGTLSLTCAVSGGSISTTNWWSWVRQPPGKGLEWIGEIHHSGNTNYNPSLKSRVTISVDRSKNQFSLKLSSVTAADTAVYFCARDGGRPGDPFDIWGQGTMVTVSS
VL: QSALTQPASVSGSPGQSITISCTGTSSDVGGYNYVSWYQQHPGKAPNLMIYDVSDRPSGVSNRFSGSKSGNTASLTISGLQAEDEADYYCNSFTSNSTRVFGTGTKVTV

Tests used:
[1] = target: T1, SARS-CoV-2 receptor-binding domain (WT RBD; S protein residues 319-539) (SARS-CoV-2, UniProt P0DTC2 319-539); assay: BLI (Octet Red), IgG on protein A biosensor, WT RBD in solution, 1:1 fit
T1 construct: also called SARS-COV-2 RBD

[2] = target: T2, SARS-CoV-2 receptor-binding domain (RBD), S protein residues 319-539 (SARS-CoV-2, UniProt P0DTC2 319-539); assay: ELISA on coated RBD
T2 construct: also called WT RBD; SARS-COV-2 RBD

Binder | Kd [1] [nM] | EC50 [2] [ng/mL]
B1 | 164 | –
B2 | 0.0026 | –
B3 | 7.14 | –
B4 | – | 1.34
B5 | 2.13 | –
B6 | – | 1.39
B7 | 6.67 | –
B8 | – | 1.28
B9 | 3.03 | –

Reference: patent US20240218057A1 (ROCKEFELLER UNIVERSITY, published 2024)
